Test system: E. necator
Assay: Leaf disc assay, dry inoculum (settling tower), decrease in disease severity / hyphal growth (Example 2)
Settings: decrease in disease severity (hyphal growth) relative to untreated control, value ± SE; for % decrease =/− SE TP1: time point 1 (untreated control hyphal growth ≥50%); for % decrease =/− SE TP2: time point 2

Molecule	% decrease =/− SE TP1 [%]	% decrease =/− SE TP2 [%]
GS3317 (nucleic acid) sense: CAGGACUGUCCAGUUAGAUCUAGAGUCAAAAUGCCCAAAUCAUCCAAAAAGUAAGGUGGUAUAAGAAGAAGCUUAACGUUUAUAGACGUAACUGAAUCUCGGAAGAACAGCUCUUUCCUAGCAAGCAAGUAGUUGUGAAAUUACCUGCUCCUAGGUUUAUUUUUUAUUUUCAGGUGGAAUAUUGAUGAUCGCUGGAUCCACAAAAUGUAAAUUAAAAAAAUAAAAACAAAUAUCUGGUGACUGAAGGAUUUCAUGUAGUGACUAAACGUCAGUACAAGUCACAGAGUACUGAUCAAAACUACAGAAUUAUAUCUCGACGUCUUCCCUGAAGAUGAUAAAAGAUUCACCCACAACAUAAAGCUUUCAUUAUAUAU antisense: AUAUAUAAUGAAAGCUUUAUGUUGUGGGUGAAUCUUUUAUCAUCUUCAGGGAAGACGUCGAGAUAUAAUUCUGUAGUUUUGAUCAGUACUCUGUGACUUGUACUGACGUUUAGUCACUACAUGAAAUCCUUCAGUCACCAGAUAUUUGUUUUUAUUUUUUUAAUUUACAUUUUGUGGAUCCAGCGAUCAUCAAUAUUCCACCUGAAAAUAAAAAAUAAACCUAGGAGCAGGUAAUUUCACAACUACUUGCUUGCUAGGAAAGAGCUGUUCUUCCGAGAUUCAGUUACGUCUAUAAACGUUAAGCUUCUUCUUAUACCACCUUACUUUUUGGAUGAUUUGGGCAUUUUGACUCUAGAUCUAACUGGACAGUCCUG	21 ± 9	17 ± 9
ES52: dsRNA trigger SEQ ID NO 113; gene target Hypotethical effector (nucleic acid) DNA: ATGTTCAAAAAATTTATTTTCCTCTCAAGCCAGGCCTTAATGGTACTTTCGAATCCTCTTTATATTGGTGATAATCATCTTCCGAGCGACCAAAATAATCCGTTCTTAATATCCTATGATTGGAAAGCTGGCTTTACAAGCGAATTCGAACTTCATGATTCCTGCAATGCAACACAGAAAAAACAGCTGCAAGACGGCCTCTCTGACGCTGTGACACTTGCTAGGCATGCTAAAGAACATATTCTTGTGAAGGGAACTGAATCACCCATATATAAGAAATATTTCGGTCAAGGTCCTACAGGATCGGTCCTGGGATGGTATGACAAAATTGCTTCTTCTGACCGAAAAGACATCCTTTTCCGTTGTGATGACCCCGATAAGAATTGCCAAACTCAACCTCAATGGGCTGGACATCACCGCGGAAAAAATGCGTCATTAGAGACAGTGATCTGCGAGCTTTCATTTCTCACTCGGCTTCCACTTGAAGCTC	6 ± 1	6 ± 2
GS3313 (nucleic acid) sense: AUCGUGAAUGGAGCUGUAACUGAAACAACAGCUUUACUAAACGAAAAAUGGGACAAAAUAUUUUACACUGGCAAUACCCAAGUAGGUGUAAUAAUUGCCAAAAAAGCUGCAGAAACUCUUACACCAGUUUGCUUAGAGCUCGGGGGAAUCAAUCCGGCAAUCAUUACGAAAAAUGCAGACCCAUACCUUGCUGCUCGUCGGCUAUUAUGGGGUAAACUAAUGAAUGCUGGACAAGUUUGCAUCAGUCAAAAUUAUAUUCUUGUCGAACAAGAAGUUUUACCAAUUUUCGUAGAGCAUUUGAAAAACACUCUAAAUGAAUUCUAUCCAAAUGGUAUAAGAAAUAGUCCAGAUUUUGGAAGGAUAGUCAAUCAGCGUCAUUUUUCUAGAAUUAAAAAAAU antisense: AUUUUUUUAAUUCUAGAAAAAUGACGCUGAUUGACUAUCCUUCCAAAAUCUGGACUAUUUCUUAUACCAUUUGGAUAGAAUUCAUUUAGAGUGUUUUUCAAAUGCUCUACGAAAAUUGGUAAAACUUCUUGUUCGACAAGAAUAUAAUUUUGACUGAUGCAAACUUGUCCAGCAUUCAUUAGUUUACCCCAUAAUAGCCGACGAGCAGCAAGGUAUGGGUCUGCAUUUUUCGUAAUGAUUGCCGGAUUGAUUCCCCCGAGCUCUAAGCAAACUGGUGUAAGAGUUUCUGCAGCUUUUUUGGCAAUUAUUACACCUACUUGGGUAUUGCCAGUGUAAAAUAUUUUGUCCCAUUUUUCGUUUAGUAAAGCUGUUGUUUCAGUUACAGCUCCAUUCACGAU	9 ± 9	13 ± 9
GS3310 (nucleic acid) sense: CGUCGACCUCAAAAGCAGAGAAGUUGGGCGAGUUGAUUAUUGCUUCUACGGAGAAAGCCUGUAUAACUGUAGGUUCGUAGCUUUGAGCAUUCAAAAAUUUGUUGUAAACGAUUUUAGUAGAUGAGUAUUCACUUGGCAAAUGAGAGAUUUGAUCUGCUAUUGUUUGAGCGUCUGCAAAGGUUGGAAUAUCUUUCCCUACGCCAGAGAAACUUAAAACAAUAUUUUUACUACUUGACCGACUCAAUUGUGCCUUAGCCUUCUCUCCCAAUACCACAAUAUCGGCAUUGGGGUUUUCAGAGAGCAUUUUUCGAACGUGUUUACUUAAGCCUGAAUGAAUACCGCCGCACAAUCCUUUAUCUGAGCUUGCAACUACAAUCAAGUACUUUUGGUCAUCUUUU antisense: AAAAGAUGACCAAAAGUACUUGAUUGUAGUUGCAAGCUCAGAUAAAGGAUUGUGCGGCGGUAUUCAUUCAGGCUUAAGUAAACACGUUCGAAAAAUGCUCUCUGAAAACCCCAAUGCCGAUAUUGUGGUAUUGGGAGAGAAGGCUAAGGCACAAUUGAGUCGGUCAAGUAGUAAAAAUAUUGUUUUAAGUUUCUCUGGCGUAGGGAAAGAUAUUCCAACCUUUGCAGACGCUCAAACAAUAGCAGAUCAAAUCUCUCAUUUGCCAAGUGAAUACUCAUCUACUAAAAUCGUUUACAACAAAUUUUUGAAUGCUCAAAGCUACGAACCUACAGUUAUACAGGCUUUCUCCGUAGAAGCAAUAAUCAACUCGCCCAACUUCUCUGCUUUUGAGGUCGACG	22 ± 8	11 ± 8
GS3312 (nucleic acid) sense: CUGCUGGUAGUGACAAGGGCACAGAACACGUCUGGGAAAUAAGCCAGAGCGUGGGCAUGAUAAUUGGUGGAAUUUUAGAAAAUUUGCUCAUGCUUAUGGGAAAAGUUCCCAGCUUAACGAGGAGGCAAGUACGAUAUAGCUGUAUGACAAGAUACUAUGACUGUAGUAAAGCUAAGAGGCUACUUGGAUAUACACCAGAAGUCCACCUGUGGGAAGGCAUAGAGAGGUCAGUUGCUUGGUUCAAAAAUCAGAGUUAAUUAUCGAAGCCCGAAUGAAUACUUCAUAUUACUAAACUUGCCCGAAUUAAAAUUCUGGCUAGCUUAGUUAUCAAAUAAAAAUUGAUAGUUAAGUUGAUCUUUCAUUGAUGAAUAUAUAAGUACUUAACCUUAUCAUUCAAU antisense: AUUGAAUGAUAAGGUUAAGUACUUAUAUAUUCAUCAAUGAAAGAUCAACUUAACUAUCAAUUUUUAUUUGAUAACUAAGCUAGCCAGAAUUUUAAUUCGGGCAAGUUUAGUAAUAUGAAGUAUUCAUUCGGGCUUCGAUAAUUAACUCUGAUUUUUGAACCAAGCAACUGACCUCUCUAUGCCUUCCCACAGGUGGACUUCUGGUGUAUAUCCAAGUAGCCUCUUAGCUUUACUACAGUCAUAGUAUCUUGUCAUACAGCUAUAUCGUACUUGCCUCCUCGUUAAGCUGGGAACUUUUCCCAUAAGCAUGAGCAAAUUUUCUAAAAUUCCACCAAUUAUCAUGCCCACGCUCUGGCUUAUUUCCCAGACGUGUUCUGUGCCCUUGUCACUACCAGCAG	13 ± 4	19 ± 6
GS3311 (nucleic acid) sense: CUUCUCGGUAAUUCCGCAACAUUUUUAACCAUGACAUUCCAUUUCGUACAUGCUCUUGAUAUUCCGAUAACGUCAGCCUCUUGAAAUGCAUCACUUCCUAUGGCAGUAGUGGGCACUUGGCCGCAAAAAACUACUAGUGGUGUACCGUCAGAUAGAGCGUCCUGCAUCGGUGUUAUGACAUUUGUUGCACCAGGGCCAGAAGUAACUAGAAUCACCCCAGGAAGUCCACUAGCUCUGGCAUAGCCUUCAGCCAUAUGUCCAGCACCCUGUUCAUGUUUCGGUAGAAUAAAAUCGAAGUGCCUUGAAUUAUAAAUAGCGUCGAAAACGGGAAGAAUUGCUCCACCAGGAUAACCGAAAAUAUGUUUUACACCUUGCCGUAACAUCAUUUCGUGAAAUAU antisense: AUAUUUCACGAAAUGAUGUUACGGCAAGGUGUAAAACAUAUUUUCGGUUAUCCUGGUGGAGCAAUUCUUCCCGUUUUCGACGCUAUUUAUAAUUCAAGGCACUUCGAUUUUAUUCUACCGAAACAUGAACAGGGUGCUGGACAUAUGGCUGAAGGCUAUGCCAGAGCUAGUGGACUUCCUGGGGUGAUUCUAGUUACUUCUGGCCCUGGUGCAACAAAUGUCAUAACACCGAUGCAGGACGCUCUAUCUGACGGUACACCACUAGUAGUUUUUUGCGGCCAAGUGCCCACUACUGCCAUAGGAAGUGAUGCAUUUCAAGAGGCUGACGUUAUCGGAAUAUCAAGAGCAUGUACGAAAUGGAAUGUCAUGGUUAAAAAUGUUGCGGAAUUACCGAGAAG	29 ± 7	24 ± 7
GS3314 (nucleic acid) sense: CGAGGUUCAUGGUAGUUCCCUAUCUAAGGAUGAUCUUCGAGAUUUGAGAAAUAUUGACCUCUCAGACUUUUCCUACCGACAGCCCUAUAUGCAAGAAAGAAGAGACGCCGUUGGCCAAAGAGGAAACAUAAGUAAUAGAGGAAGAGGAAGGGUGAGAGGUAUAGGAAGGGAUCCAAACGUGGACCUUCCCCAACCCUUAAGUAGUCAACCUUUAAGGAGGGACGAACAAGCAUUUCAAAGGCAACUAGCAGUCCAAUCCUCUCAGUCUGUCACGACAAGGAACUCCGUCCAUCAAAAUACAACACCAGCAUCGCAAAUAUCAAAUAAUACUCCAAAAUCACAGUCUCAAGUAACAAGAUCCCCCCAGACUUCUAAUAACCUUGAAAGUGCAAACAUU antisense: AAUGUUUGCACUUUCAAGGUUAUUAGAAGUCUGGGGGGAUCUUGUUACUUGAGACUGUGAUUUUGGAGUAUUAUUUGAUAUUUGCGAUGCUGGUGUUGUAUUUUGAUGGACGGAGUUCCUUGUCGUGACAGACUGAGAGGAUUGGACUGCUAGUUGCCUUUGAAAUGCUUGUUCGUCCCUCCUUAAAGGUUGACUACUUAAGGGUUGGGGAAGGUCCACGUUUGGAUCCCUUCCUAUACCUCUCACCCUUCCUCUUCCUCUAUUACUUAUGUUUCCUCUUUGGCCAACGGCGUCUCUUCUUUCUUGCAUAUAGGGCUGUCGGUAGGAAAAGUCUGAGAGGUCAAUAUUUCUCAAAUCUCGAAGAUCAUCCUUAGAUAGGGAACUACCAUGAACCUCG	17 ± 8	12 ± 8
